The text below walks through data of PMC9328677.

The term Kd denotes the free concentration of one partner at which half of the binding sites on the other are occupied at equilibrium, for simple one-to-one binding.

First the molecules themselves.
B1: truncated APLF^AD construct corresponding to residues 449 to 490 (APLF^AD-Δ) [Homo sapiens] / stoichiometric mixture of full-length Drosophila melanogaster -H2B and H3-H4 (octamer-mix) [Drosophila … (parent)
chain 1: GLDEDNDNVGQPNEYDLNDSFLDDEEEDYEPTDEDSDWEPGKE
chain 2: not shown
chain 3: not shown
chain 4: not shown
chain 5: not shown

The variants in this test derive from B1. Briefly: ITC. Particulars: with stoichiometric mixture of full-length Drosophila melanogaster H2A-H2B and H3-H4 (octamer-mix) [Drosophila melanogaster].
As for chain 1 Y15A F21A Y29A W38A, the Kd is 1.22 µM.
